Measured values published in article doi:10.1101/2020.08.28.272104.

Target: triple-helical collagen peptide Ac-(GPO)2-GPO-GPQ-GLA-GQR-GIV-GLO-GQR-GER-(GPO)3G-NH2
Assay: ITC

## MMP-1(E200A), active-site mutant of matrix metalloproteinase 1 (enzyme)
  Kd: 250 to 500 nM
  stoichiometry N: 1
